Source: patent US20200299395A1 (MOGAM INSTITUTE FOR BIOMEDICAL RESEARCH, published 2020)

T1: BCMA expressed on multiple myeloma cell lines H929 and MM1S (UniProt Q02223 1-184, limits assumed)
T1 construct: whole, on cells; Endogenous BCMA on tumour cell lines; also called BMCA; cell surface BCMA
T1 sequence (looked up): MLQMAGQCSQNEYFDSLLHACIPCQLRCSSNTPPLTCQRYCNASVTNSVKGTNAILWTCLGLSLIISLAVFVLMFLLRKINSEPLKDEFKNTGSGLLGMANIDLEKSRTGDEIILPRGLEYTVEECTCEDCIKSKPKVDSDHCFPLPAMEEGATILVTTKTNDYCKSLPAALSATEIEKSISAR

T2: recombinant human BCMA (Cat. No. 193-BC, R&D Systems) (human, UniProt Q02223 1-54)
T2 sequence (looked up): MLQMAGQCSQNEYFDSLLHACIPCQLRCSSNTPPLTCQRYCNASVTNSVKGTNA

B1: Clone MN5 (VH domain) (VHH)
VHH: EVQLVESGGGLVQPGGSLRLSCAASGFTFSSYAMGWVRQAPGKGPEVVSLISGSGGSTWYDDSVKGRFTISRDNSKNTLYLQMNSLRAEDTAVYYCASREDNMTTWGQGTLVTVSS
notes: Single-domain antibody: a VH domain from a synthetic phage library, not camelid; Expressed in E. coli
B2: Clone MN7 (VH domain) (VHH)
VHH: EVQLVESGGGLVQPGGSLRLSCAASGFTFSSYAMGWVRQAPGKGPEVVSLISGSGGSTWYDDSVKGRFTISRDNSKNTLYLQMNSLRAEDTAVYYCASPEDMYQTWGQGTLVTVSS
notes: as for B1
B3: MN5 VH-Fc protein (Fc fusion)
chain: EVQLVESGGGLVQPGGSLRLSCAASGFTFSSYAMGWVRQAPGKGPEVVSLISGSGGSTWYDDSVKGRFTISRDNSKNTLYLQMNSLRAEDTAVYYCASREDNMTTWGQGTLVTVSS
notes: VH domain fused to a human IgG1 Fc domain; not shown: human IgG1 Fc domain
B4: MN7 VH-Fc protein (Fc fusion)
chain: EVQLVESGGGLVQPGGSLRLSCAASGFTFSSYAMGWVRQAPGKGPEVVSLISGSGGSTWYDDSVKGRFTISRDNSKNTLYLQMNSLRAEDTAVYYCASPEDMYQTWGQGTLVTVSS
notes: as for B3
B5: Clone MN8 (VH domain) (VHH)
VHH: EVQLVESGGGLVQPGGSLRLSCAASGFTFSSYAMGWVRQAPGKGPEVVSLISGSGGSTWYDDSVKGRFTISRDNSKNTLYLQMNSLRAEDTAVYYCASPEDAPSYSRWGQGTLVTVSS
notes: as for B1
B6: MN8 VH-Fc protein (Fc fusion)
chain: EVQLVESGGGLVQPGGSLRLSCAASGFTFSSYAMGWVRQAPGKGPEVVSLISGSGGSTWYDDSVKGRFTISRDNSKNTLYLQMNSLRAEDTAVYYCASPEDAPSYSRWGQGTLVTVSS
notes: as for B3
B7: Clone MN1 (VH domain) (VHH)
VHH: EVQLVESGGGLVQPGGSLRLSCAASGFTFTAYDMGWVRQAPGKGPEWVSLISSDSGDTWYDDSVKGRFTISRDNSKNTLYLQMNSLRAEDTAVYYCARLGAYSTTYDYWGQGTLVTVSS
notes: as for B1
B8: MN1 VH-Fc protein (Fc fusion)
chain: EVQLVESGGGLVQPGGSLRLSCAASGFTFTAYDMGWVRQAPGKGPEWVSLISSDSGDTWYDDSVKGRFTISRDNSKNTLYLQMNSLRAEDTAVYYCARLGAYSTTYDYWGQGTLVTVSS
notes: as for B3

What was measured:
[1] = molecular target: BCMA expressed on multiple myeloma cell lines H929 and MM1S (UniProt Q02223); test: flow cytometry, MM1S cells, negative control without VH domain [B), MM1S table]
[2] = molecular target: BCMA expressed on multiple myeloma cell lines H929 and MM1S (UniProt Q02223); test: flow cytometry, H929 cells, negative control without VH domain [B), H929 table]
[3] = molecular target: BCMA expressed on multiple myeloma cell lines H929 and MM1S (UniProt Q02223); test: flow cytometry, MM1S cells, negative control without VH-Fc protein [B), MM1S table]
[4] = molecular target: BCMA expressed on multiple myeloma cell lines H929 and MM1S (UniProt Q02223); test: flow cytometry, H929 cells, negative control without VH-Fc protein [B), H929 table]
[5] = molecular target: T1, BCMA expressed on multiple myeloma cell …; test: flow cytometry, H929 cells, purified VH domain (text: 1 uM); control iso_anti-His-PE Mean 13.5 [B), H929 table]
Procedure: (§1) Multiple myeloma cells in culture were placed in a 50 ml tube and centrifuged at 1,000 rpm for 5 minutes at room temperature. Then, the culture solution was discarded and washing with PBS was performed once. The resultant was suspended in FACS buffer and then transferred to a round bottom tube. Centrifugation was performed at 2,000 rpm for 3 minutes at room temperature. The supernatant was discarded and loosening was performed with FACS buffer so as to obtain 1×10⁶ cells/100 μl. Then, 1 uM of the purified candidate antibody was added thereto at 4° C.
(§2) As a control, FACS buffer containing no candidate antibody was added. After 30 minutes, washing with FACS buffer was performed twice. […] The cells were collected by centrifugation at 2,000 rpm for 3 minutes, and then 200 μl of fixation buffer was added thereto. The cells were resuspended and measured by FACS Calibur™. The results are illustrated in FIGS. 4 and 5.

[6] = molecular target: T1, BCMA expressed on multiple myeloma cell …; test: flow cytometry, MM1S cells, purified VH domain (text: 1 uM); control iso_anti-His-PE Mean 4.19 [B), MM1S table]
Procedure: as §1, §2

[7] = molecular target: T2, recombinant human BCMA (Cat. No. …); test: BLI (Octet), BCMA fixed on Anti-Fc Biosensor, antibody 0.078 to 5 nM
Procedure: Among the selected 20 clones, Clones MN1, MN5, MN7, and MN8 which were expected to have excellent binding capacity to BCMA-expressing tumor cell lines were purified. Quantitative binding capacity (affinity) of Clones MN1, MN5, MN7, and MN8 to recombinant human BCMA was measured using the OCTET system (Pall Corporation). BCMA (Cat. No. 193-BC, R&D Systems) purified from HEK293 cells was fixed to Biosensor (Pall Corporation). Then, the MN1, MN5, MN7, or MN8 antibody diluted sequentially in Kinetic bfr (Pall Corporation) was allowed to associate in a concentration range of 0.078 nM to 5 nM for 120 seconds, and was allowed to dissociate by performing flowing at a flow rate of 30 μl/min for 1,800 seconds. Dissociation of the BCMA-bound antibody was induced by flowing 10 mM glycine-HCl pH 1.5 at a flow rate of 30 μl/min for 30 seconds (Table 3). The binding affinity was obtained as the kinetic parameters (Kon and Koff) and the equilibrium dissociation constant (KD) using the Octet system data analysis software (Table 4).

[8] = molecular target: T1, BCMA expressed on multiple myeloma cell …; test: flow cytometry, H929 cells, purified VH domain (text: 1 uM); control iso_anti-His-PE Median 10.8 [B), H929 table]
Procedure: as §1, §2

[9] = molecular target: T1, BCMA expressed on multiple myeloma cell …; test: flow cytometry, MM1S cells, purified VH domain (text: 1 uM); control iso_anti-His-PE Median 3.74 [B), MM1S table]
Procedure: as §1, §2

[10] = molecular target: T1, BCMA expressed on multiple myeloma cell …; test: flow cytometry, H929 cells, purified VH-Fc protein, 100nM per the sample name; control anti-hFc-PE Mean 5.41 [B), H929 table]
[11] = molecular target: T1, BCMA expressed on multiple myeloma cell …; test: flow cytometry, MM1S cells, purified VH-Fc protein, 100nM per the sample name; control anti-hFc-PE Mean 2.81 [B), MM1S table]
[12] = molecular target: T1, BCMA expressed on multiple myeloma cell …; test: flow cytometry, H929 cells, purified VH-Fc protein, 100nM per the sample name; control anti-hFc-PE Median 4.82 [B), H929 table]
[13] = molecular target: T1, BCMA expressed on multiple myeloma cell …; test: flow cytometry, MM1S cells, purified VH-Fc protein, 100nM per the sample name; control anti-hFc-PE Median 2.50 [B), MM1S table]

| Molecule | Mean FL2-H [5] | Mean FL2-H [6] | Kd [7] [nM] | Median FL2-H [8] | Median FL2-H [9] | Mean FL2-H [10] | Mean FL2-H [11] | Median FL2-H [12] | Median FL2-H [13] | further results |
| --- | --- | --- | --- | --- | --- | --- | --- | --- | --- | --- |
| iso_anti-His-PE (antibody) | – | – | – | – | – | – | – | – | – | Mean FL2-H [1]: 4.19; Median FL2-H [1]: 3.74; Mean FL2-H [2]: 13.5; Median FL2-H [2]: 10.8 |
| anti-hFc-PE (antibody) | – | – | – | – | – | – | – | – | – | Mean FL2-H [3]: 2.81; Median FL2-H [3]: 2.5; Mean FL2-H [4]: 5.41; Median FL2-H [4]: 4.82 |
| B1 | 25.6 | 13.9 | 2.22 | 22.9 | 9.81 | – | – | – | – | – |
| B2 | 14.8 | 5.38 | 2.23 | 11.8 | 4.49 | – | – | – | – | – |
| B3 | – | – | – | – | – | 10.6 | 3.02 | 7.78 | 2.64 | – |
| B4 | – | – | – | – | – | 10.1 | 2.89 | 7.92 | 2.55 | – |
| B5 | 15.1 | 4.93 | 1.17 | 12.9 | 4.43 | – | – | – | – | – |
| B6 | – | – | – | – | – | 14 | 3.13 | 10.3 | 2.77 | – |
| B7 | 62.9 | 24 | 0.7 | 50.4 | 14.3 | – | – | – | – | – |
| B8 | – | – | – | – | – | 134 | 49.9 | 101 | 42.1 | – |
